Results from patent US20190309093A1 (Y BIOLOGICS, published 2019).

Experiments:
hCD3εγ chains = biological target: T1, hCD3εγ chains; assay: ELISA on hCD3εγ chains, fit value of a flat curve, unit taken from the x axis Antibody [nM]
T1 construct: copies: 1 + 1
T1 epsilon: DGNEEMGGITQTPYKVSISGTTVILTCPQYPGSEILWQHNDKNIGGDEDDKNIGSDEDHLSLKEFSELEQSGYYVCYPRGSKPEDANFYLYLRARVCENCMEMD
T1 gamma: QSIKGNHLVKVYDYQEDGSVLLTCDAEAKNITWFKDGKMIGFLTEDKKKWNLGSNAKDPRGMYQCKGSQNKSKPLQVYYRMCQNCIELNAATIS

[1] = biological target: T2, CD3 on Jurkat luciferase reporter cells (UniProt P07766 23-207); assay: flow cytometry of Jurkat_NFAT_Luc2P cells, FITC-A; fold over hIgG
T2 construct: whole, on cells; also called CD3 positive Jurkat cell line with NFAT luciferase reporter

B1: ACE-05 (bispecific antibody)
heavy 1: not shown
heavy 2: not shown
light: QLVLTQPPSVSGAPGQRVTISCTGSSSNIGAGYDVHWYQQLPGAAPKLLIYGDINRPSGVPDRFSGSKSGISASLAITGLQAEDEADYYCQSYDSSLSGGVFGGGTKLTVLRTVAAPSVFIFPPSDEQLKSGTASVVCLLNNFYPREAKVQWKVDNALQSGNSQESVTEQDSKDSTYSLSSTLTLSKADYEKHKVYACEVTHQGLSSPVTKSFNRGEC
notes: The Fab regions are bivalent for PD-L1 and the Fv is monovalent for CD3; also called ALiCE molecule ACE-05
Kd (hCD3εγ chains): 0.035 nM

B2: UCHT1 (antibody, V domains shown)
VH: EVQLQQSGPELVKPGPSMKISCKASGYSFTGYTMNWVKQSHGKNLEWMGLINPYKGVSTYNQKFKDKATLTVDKSSSTAYMELLSLTSEDSAVYYCARSGYYGDSDWYFDVWGQGTTLTVFS
VL: DIQMTQTTSSLSASLGDRVTISCRASQDIRNYLNWYQQKPDGTVKLLIYYTSRLHSGVPSKFSGSGSGTDYSLTISNLEQEDIATYFCQQGNTLPWTFAGGTKLEIKR
notes: Bought antibody
Fold [1]: 35
